Reference: patent US7148006

Assays:
[1] = target: T1, GST-NS5A (HCV-1a NS5A aa 1-427 fused in frame with glutathione-S-transferase), P26664
T1 chain: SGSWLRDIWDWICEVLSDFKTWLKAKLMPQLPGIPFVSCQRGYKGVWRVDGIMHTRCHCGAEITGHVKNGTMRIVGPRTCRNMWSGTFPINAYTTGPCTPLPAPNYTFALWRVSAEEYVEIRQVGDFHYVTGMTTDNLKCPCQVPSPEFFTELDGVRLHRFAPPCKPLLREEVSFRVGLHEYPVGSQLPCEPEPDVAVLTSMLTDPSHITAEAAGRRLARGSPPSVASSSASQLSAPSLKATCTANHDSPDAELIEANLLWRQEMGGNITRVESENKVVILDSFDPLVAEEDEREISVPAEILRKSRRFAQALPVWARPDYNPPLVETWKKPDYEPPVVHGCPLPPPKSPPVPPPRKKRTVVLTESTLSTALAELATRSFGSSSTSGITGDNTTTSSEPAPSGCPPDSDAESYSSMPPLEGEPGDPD

[2] = target: NS5A 1b-wt (untagged, expressed from pYES-NS5A 1b-wt)
[3] = target: NS5A 1b-5 (untagged, expressed from pYES-NS5A 1b-5)
[4] = target: NS5A 1b-4 (untagged, expressed from pYES-NS5A 1b-4)
[5] = target: GST (glutathione-S-transferase alone) [GST: P08515]
[6] = target: vaccinia virus K3L protein, P18378
[7] = target: NS5A 1b-2 (untagged, expressed from pYES-NS5A 1b-2)
[8] = target: T2, NS5A 1a-wt (full-length NS5A from IFN-resistant HCV-1a, untagged), P26664
T2 chain: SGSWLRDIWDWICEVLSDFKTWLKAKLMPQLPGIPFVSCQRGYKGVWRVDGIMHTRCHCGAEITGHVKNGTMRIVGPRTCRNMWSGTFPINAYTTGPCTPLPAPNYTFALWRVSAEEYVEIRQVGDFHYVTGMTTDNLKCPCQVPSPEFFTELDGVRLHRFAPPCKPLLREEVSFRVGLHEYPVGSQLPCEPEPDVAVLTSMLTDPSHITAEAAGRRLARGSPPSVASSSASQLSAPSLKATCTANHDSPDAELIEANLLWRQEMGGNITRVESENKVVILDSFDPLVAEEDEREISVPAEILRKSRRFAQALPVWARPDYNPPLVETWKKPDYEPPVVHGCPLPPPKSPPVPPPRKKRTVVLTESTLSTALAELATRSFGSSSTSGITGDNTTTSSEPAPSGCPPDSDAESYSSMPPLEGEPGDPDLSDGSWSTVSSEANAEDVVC

B1: wild type human PKR, full length (aa 1-551) (protein)
chain: MAGDLSAGFFMEELNTYRQKQGVVLKYQELPNSGPPHDRRFTFQVIIDGREFPEGEGRSKKEAKNAAAKLAVEILNKEKKAVSPLLLTTTNSSEGLSMGNYIGLINRIAQKKRLTVNYEQCASGVHGPEGFHYKCKMGQKEYSIGTGSTKQEAKQLAAKLAYLQILSEETSVKSDYLSSGSFATTCESQSNSLVTSTLASESSSEGDFSADTSEINSNSDSLNSSSLLMNGLRNNQRKAKRSLAPRFDLPDMKETKYTVDKRFGMDFKEIELIGSGGFGQVFKAKHRIDGKTYVIKRVKYNNEKAEREVKALAKLDHVNIVHYNGCWDGFDYDPETSDDSLESSDYDPENSKNSSRSKTKCLFIQMEFCDKGTLEQWIEKRRGEKLDKVLALELFEQITKGVDYIHSKKLIHRDLKPSNIFLVDTKQVKIGDFGLVTSLKNDGKRTRSKGTLRYMSPEQISSQDYGKEVDLYALGLILAELLHVCDTAFETSKFFTDLRDGIISDIFDKKEKTLLQKLLSKKPEDRPNTSEILRTLTVWKKSPEKNERHTC
B1 was tested, and the “PKR autophosphorylation and phosphorylation of an exogenous histone substrate, in vitro kinase assay” value [1] was “as little as 0.2 pmol of NS5A can inhibit 1.8 pmol of PKR”, the “eIF-2α serine 51 phosphorylation in yeast RY1-1 (isoelectric focusing immunoblot)” value (from here on “eIF-2α serine 51 phosphorylation”) [2] was “exhibited a significant reduction in the level of hyper-phosphorylated eIF-2α” and the “eIF-2α serine 51 phosphorylation” value [3] was “possessed predominantly the hyper-phosphorylated isoform of eIF-2α, similar to the vector control strain”. The “eIF-2α serine 51 phosphorylation” value [4] was “possessed predominantly the hyper-phosphorylated isoform of eIF-2α, similar to the vector control strain”, the “PKR autophosphorylation and phosphorylation of an exogenous histone substrate, in vitro kinase assay” value [5] was “Equal molar levels of GST had no effect upon PKR activity” and the “level of basally phosphorylated eIF-2α relative to total (isoelectric focusing, densitometry)” value [6] was “K3L, 11.7% (lane 3)”. For the same protein, the “eIF-2α serine 51 phosphorylation” value [7] was “possessed predominantly the hyper-phosphorylated isoform of eIF-2α, similar to the vector control strain”, the “level of basally phosphorylated eIF-2α relative to total (isoelectric focusing, densitometry)” value [8] was “NS5A, 9.8% (lane 2)” and the “level of unphosphorylated eIF-2α in yeast RY1-1 over vector control” value [8] was “approximately an 11-fold increase in the level of unphosphorylated eIF-2α”.
